Results taken from patent US20170247459A1, “COMBINATION THERAPY OF ANTIBODIES AGAINST HUMAN CSF-1R AND USES THEREOF” (HOFFMANN-LA ROCHE INC., priority 2012, published 2017).

Assays:
Assay in all cases: cell-based or functional assay
[1] = target: CSF-1R on cynomolgous monocytes (cynomolgous)
[2] = target: human mutant CSF-1R L301S Y969F, full-length, on NIH 3T3 cells (human) (UniProt P07333)
[3] = target: human wildtype CSF-1R (wt CSF-1R), full-length, on cells (human) (UniProt P07333)

Substance	% inhibition (of survival) = (100%-% survival), cynomolgous monocytes at 5 µg/ml antibody [1]	% survival of cynomolgous monocytes at 5 µg/ml antibody (CellTiterGlo) [1]	Mutant CSF-1R IC30 (cell viability, 3D spheroids, CellTiterGlo) [2]	Mutant CSF-1R IC50 (cell viability, 3D spheroids, CellTiterGlo) [2]	wtCSF-1R IC30 (cell viability, 3D spheroids, CellTiterGlo) [3]	wtCSF-1R IC50 (cell viability, 3D spheroids, CellTiterGlo) [3]
Anti CSF-1R SC 2-4A5 (Santa Cruz Biotechnology, US) (antibody)	69%	31%	2.56 µg/mL	10 µg/mL	16.6 µg/mL	10 µg/mL
goat polyclonal anti-CSF-1R antibody ab10676 (abcam)			> 20 µg/mL		14.2 µg/mL	
